B1: SuGT5: Salvia uliginosa glycosyltransferase (SEQ ID NO: 13, cDNA SEQ ID NO: 12) expressed in Escherichia coli, His-Tag purified (protein, listed as Salvia uliginousa)
chain: MKQLHIALFPSMAHGHMIPMFELAKLFTSRGLKATIIATPAFAAPITKAQQSGLDVGLAITPFPPKGSSLPQNIIAFDQMTNPDLTTSFLRAMELLQEPVEAILQELHPDCLVSDMFLPWTADSAAKFQIPRLAFYGTSYFSRCVSEQVGDKPFNNVTSDSEPVLVPGLPQQIKFVRSQFSPVLLEETQNDFAKLFKQMTEAWKKTYGEVVNSFNELESDYANHYKNVIGRKAWEIGPLLLCSSSKGGEKNQQRGKESAIDEHECLAWLDSKNPNSVVYVCAGSVASFSQAQLRETAMGLEASGQNFVWVVRKNKEDDDDWLPVGFEERVGNRGLIIRGWAPQVMILNHAAVGAFVTHCGWNSTLEGVCAGLPMVTWPVFAEQFFNEKLVTEVLGTGVSVGNKRWMLRESEGVERDAVARAVEEIMVGGGAEEMRSRAENYKEMAKKAVEEGGSSYNNLNALIEELSNYVAPTIQDKN
modifications: His-tag
B2: NmGT3: Nemophila glycosyltransferase (SEQ ID NO: 2, cDNA SEQ ID NO: 1) expressed in Escherichia coli, His-Tag purified (protein, listed as Nemophila menziesii)
chain: MPSILSNSAHILLFPFPTSGHIIPILDLANQLLARGLTITILITPANLTLLSTQLIELDRLGSLHTLVLPFPNPPNPSETSLAARVHASSQLSNTIIQWFQSHTSPPVAIVSDFFLGWTNSLASQLGIPRLVFWPSGVQRSSLVDYIWQNDQLSDSDHQIQDNSVISFPDVPNSPAYPKWQACGLSTQYKKGDPSWEFFKNGVLANTQSWGAIYNSFRDLEGVYIDYIKKKMGHGRVWAVGPLLPANDASKRGGSCVMPIDDVMTWLDTKTNSDNSVVYVCFGSRVELTTEQLDSLAAALEISGVHFILCVKLHQEISKEYEDRVAGRGLIIRGWAPQVAILRHRAVGAFLTHCGWNSILEGIAAGVVMLTWPMGADQFTNANLLVDELKVAMKACEGGDSNVPNPAMLANVLAESINGGRAERERVTELCDAALKAVQSGNGSSAKDLDSLTNQLNGLKVKIN
modifications: His-tag
B3: NmGT4: Nemophila glycosyltransferase (SEQ ID NO: 4, cDNA SEQ ID NO: 3) expressed in Escherichia coli, His-Tag purified (protein, listed as Nemophila menziesii)
chain: MAAQLHVVFFPFMAQGHLIPTLEMVKLFSSRGLKTTIVTTKFYAPAVTKSIEKTKHTGNQINIIIIKFPSAEVGLPEGSESLDKLKSPDMFMKFFKALSLLQEPFEQILQELSPDCIVSDMFFPWTTASAAKFDIPRFVFHGLSLFALCVSENMRFYKPFKNLGSESLDSEPVMLPDFPNQIEFSKVQVPEFEVGESKNEIMELLNQVKESEVKSYGIIINSFNELEKDYVDYYRNVWGRRAWLLGPLSLSNRDDEVKDQTDEHGSLKWLDSKKPDSVIYVCFGSVAPLSSSQLHEIALGLESSGQQFIWVVKEREDGEKWLPEGFEERIKDKGLIIRGWAPQVSILEHESTGGFVTHCGWNSVLEAVSAGVVMATLPTFAEQPFNEKLLTKVLKIGIPIGSPLSNRGKSGVKKEEIAEAMKGIMEGEEALEMRIRAKSLKEMAWKAVEEGGSSYNDLTSLIDGVKAYRSQSNKI
modifications: His-tag

Key:
Format in all cases: biochemical
[1] = Reactivity to various flavonoid compounds and betanidine (FIG. 13)
[2] = Determination of enzyme activity of His-Tag-purified SuGT protein solutions from Salvia uliginosa (HPLC)
Description: Escherichia coli expression constructs (pET-SuGT2, 5, 10) were created in a manner similar to that described in Example 5.
In a manner similar to that described in Example 5, “SuGT2 protein solution”, “SuGT5 protein solution” and “SuGT10 protein solution” were prepared.
[…] Subsequently, 200 μl of the stopping buffer (a 90% acetonitrile aqueous solution containing 0.1% TFA) was added to stop the reaction, and analyzed with a high performance liquid chromatography (Prominence (Shimadzu)). The detector used is Shimadzu PDA SPD-M10AVP, and the flavone was detected at 330 nm. The column used is Shim-Pack ODS 150 mm×4.6 mm (Shimadzu). In elution, solution A (a 0.1% TFA aqueous solution) and solution B (a 90% methanol aqueous solution containing 0.1% TFA) were used. A linear gradient from a 8:2 mixture of the two solutions to a 3:7 mixture over 10 minutes and then a 3:7 mixture over 6 minutes were used in elution. The flow rate was set at 0.6 ml/minute.

[3] = Determination of enzyme activity of candidate glycosyltransferases, crude enzyme from Escherichia coli (HPLC); details: crude enzyme solution, substrate apigenin, UDP-glucose, 30° C., 1 hour
Description: pET-NmGT0 through pET-NmGT9 were introduced into Escherichia coli strain BL2 using the One Shot BL21 (DE3) (Invitrogen) according to a protocol recommended by the manufacturer to obtain transformed Escherichia coli. The Escherichia coli was cultured, using the Overnight Express Autoinduction System 1 (Novagen) according to a protocol recommended by the manufacturer. With 2 ml of the culture liquid prepared, the transformed Escherichia coli was cultured at 37° C. (about 4 hours) until the OD600 value reached 0.5. To this Escherichia coli solution as the preculture, 50 ml of the culture liquid was added and then subjected to the main culture overnight at 27° C. […]
80 μl of the crude enzyme solution, 20 μl of 5 mM UDP-glucose, 20 μl of 1M Tris HCl (pH 7.5), and 1 μl of 500 ng/μl apigenin were prepared on ice to 200 μl in water, and the reaction mixture obtained was maintained at 30° C. for 1 hour. Subsequently, 200 μl of the stopping buffer (a 90% acetonitrile aqueous solution containing 0.1% TFA) was added to stop the reaction, and analyzed with a high performance liquid chromatography (Prominence (Shimadzu)). The detector used is Shimadzu PDA SPD-M10AVP, and the flavone was detected at 330 nm. […]

[4] = Determination of enzyme activity of His-Tag-purified NmGT3 and NmGT4 protein solutions (HPLC); details: for product biosynthesized from apigenin 7-glucoside: substrate 50 ng/μl apigenin 7-glucoside, same condition; for product biosynthesized from apigenin: substrate 500 ng/μl apigenin, UDP-glucose, 30° C., 20 minutes; for product biosynthesized from apigenin 4′-glucoside: substrate apigenin 4′-glucoside, same condition (not shown)
Description: The Escherichia coli strain BL2 in which pET-NmGT3 or pET-NmGT4 described in Example 5 was introduced was cultured, using the Overnight Express Autoinduction System 1 (Novagen) according to a protocol recommended by the manufacturer. With 8 ml of the culture liquid prepared, the transformed Escherichia coli was cultured at 37° C. (about 4 hours) until the OD600 value reached 0.5. To this Escherichia coli solution as the preculture, 200 ml of the culture liquid was added and then subjected to the main culture overnight at 25° C.
The overnight-cultured Escherichia coli solution was centrifuged (1000×g, 4° C., 10 minutes), and the cells collected were suspended in 20 ml of a buffer (composition: NaCl: 0.5 M, Tris HCl (pH 7.9): 20 mM, imidazole: 5 mM, amidinophenyl methanesulfonyl fluoride hydrochloride (APMSF): 10 μM), and Escherichia coli was disrupted by sonication. The cells were then centrifuged (1400×g, 4° C., 20 minutes), and the supernatant was collected. The supernatant was passed through a 0.45 μm filter to His-Tag-purify using the Profinia (Bio-Rad) according to a protocol recommended by the manufacturer. The purified protein solution thus obtained was centrifuged (7500×g, 4° C., 15 minutes) using the Centrifugal filters (Ultracel-10K) (Amicon Ultra), and the concentrated protein solution was termed as “NmGT3 protein solution” and “NmGT4 protein solution”. For centrifugation, the Avanti HP-26 XP (rotor: JA-2) was used (BECKMAN COULTER).
20 μl of the protein solution, 20 μl of 5 mM UDP-glucose, 20 μl of 1M Tris HCl (pH 7.5), and 1 μl of 500 ng/μl apigenin were mixed and prepared on ice to 200 μl in water, and the reaction mixture obtained was maintained at 30° C. for 20 minutes. Subsequently, 200 μl of the stopping buffer (a 90% acetonitrile aqueous solution containing 0.1% TFA) was added to stop the reaction, and analyzed with a high performance liquid chromatography (Prominence (Shimadzu)). The detector used is Shimadzu PDA SPD-M10AVP, and the flavone was detected at 330 nm. The column used is Shim-Pack ODS 150 mm×4.6 mm (Shimadzu). In elution, solution A (a 0.1% TFA aqueous solution) and solution B (a 90% methanol aqueous solution containing 0.1% TFA) were used. A linear gradient from a 8:2 mixture of the two solutions to a 3:7 mixture over 10 minutes and then a 3:7 mixture over 6 minutes were used in elution. The flow rate was set at 0.6 ml/minute.

Molecule | reactivity to various flavonoid compounds and betanidine [1] | product biosynthesized from apigenin 7-glucoside ([2]; substrate 500 ng/μg apigenin 7-glucoside, same condition) | product biosynthesized from apigenin ([2]; substrate 500 ng/μg apigenin, UDP-glucose, 30° C., 90 minutes) | HPLC peaks after reaction of crude enzyme with apigenin [3] | product biosynthesized from apigenin 7-glucoside [4] | product biosynthesized from apigenin [4] | product biosynthesized from apigenin 4′-glucoside [4]
B1 | found to have an activity for not only apigenin and its glycosides but for luteolin and its glycosides and flavonol and its glycosides | a flavone exhibiting the same retention time and the same absorption maximum as the purified apigenin 4′,7-diglucoside product was biosynthesized | a flavone exhibiting the same retention time and the same absorption maximum as the purified apigenin 4′,7-diglucoside product had been biosynthesized |  |  |  | 
B2 | found to have an activity for not only apigenin and its glycosides but for luteolin and its glycosides and flavonol and its glycosides |  |  | peaks other than that of the substrate were observed | a flavone exhibiting the same retention time and the same absorption maximum as the purified apigenin 4′,7-diglucoside product was biosynthesized | a flavone exhibiting the same retention time and the same absorption maximum as the purified apigenin 4′,7-diglucoside product had been biosynthesized | a flavone exhibiting the same retention time and the same absorption maximum as the apigenin 4′,7-diglucoside purified product was biosynthesized
B3 | found to have an activity for not only apigenin and its glycosides but for luteolin and its glycosides and flavonol and its glycosides |  |  | peaks other than that of the substrate were observed | a flavone exhibiting the same retention time and the same absorption maximum as the purified apigenin 4′,7-diglucoside product was biosynthesized | a flavone exhibiting the same retention time and the same absorption maximum as the purified apigenin 4′,7-diglucoside product had been biosynthesized | a flavone exhibiting the same retention time and the same absorption maximum as the apigenin 4′,7-diglucoside purified product was biosynthesized

Reference: patent US9365836B2, “Glycosyltransferase gene and use thereof” (SUNTORY HOLDINGS LIMITED, priority 2011, dated 2016)
